B1: EcXA130: antisense clone insert to E. coli atpE, atpB (nucleic acid, listed as Escherichia coli)
antisense: CATCATCACAGCGGCAGCCATGTACAGCAGATCCATATTCAGGTTTTCCATGACAGTCTCCAGTTTGTTTCAGTTAAAACGTAGTAGTGTTGGTAAATTAATGTTCTTCAGACGCCATCGACAGATAGACGATCGTCAGAACCATGAAGATGAAGGCTTGCAGCGTAATGATCAGGATGTGGAAAATGGCCCACGGCACATTCAGGATCCACTGTGACCACCACGGCAACAGACCAG
B2: EcXA129: antisense clone insert to E. coli yadC, yadK (nucleic acid, listed as Escherichia coli)
antisense: GTATTACAACAAGAATACAGTGCTAAAAAAAGAATGTACCTGAAGATAGTCTTCATTTTTACTCCAATGTTTCTTTATTGTTATGGTTTGCGCTGTTTTTGTTTGTTATTCGTAGTAAATATCCACTAACACATGGCTCATAAGTTGACCAGATGTAACACTCAATGCAGGATCGATTTTTTGCATTCGGGTGCTAAATTTCCAGGATGAACCATTCATGTCATCCGACATTACTGG
B3: EcXA138: antisense clone insert to E. coli yhaC (nucleic acid, listed as Escherichia coli)
antisense: AGCCATTGTCCGGAGAATTTTCGTCTTTCTCGAGGGTATTATCTGAAAGTAACTCTTCTGAGCTAGAGTCTTCTATGTTTAAATCCATAGTATAATTAATTTGGGGGACGACCAGATAAGCATTTTCTTTGGTATTTTCATAATCTTCAATGATTATATCCGATGTAATCATATATTTTTTCTGATGAGAATTCTTTCATCTCTGTTAATTTAATTCTGTTCAAGCAATTGATGATTTTCGATGAGCTTTTATATATTTCTTTTGTTAATTCATTTTCTAATTTATCTGTAAGAGTTGCCCTTGG
B4: EcXA121: antisense clone insert to E. coli yjfQ (nucleic acid, listed as Escherichia coli)
antisense: TGATCGATCAGGTAATTTGCCAGCGGTAGATAATTAGTGATGATTTGCACTGGCTTGCCACACATTTCCCGCCCAAGCAGAAACGCGGTGGAGCCGCAGTTGATGACTACGCTTTCGCCCGGATTAACCAGCTGCGAGGCCGCTTTAGCGATACGTACTTTTTCATCGTGATTCTGCGCCTGATGCAGATTCATCGGCGTCCAGCGCGGGCGCTGTTGGGTAATAGCTTCTGCGCCATTGCGCACTTTTTTCAGTTTGCCGCTTTCGTCAAGTTTATTGA
B5: EcXA139: antisense clone insert to E. coli b0874 (nucleic acid, listed as Escherichia coli)
antisense: AGGTTACTGGCGAGGTTATCGAGAAACGCCAGACTGATACCCATAAAAAAGAGAATAAGGTAAACCATCCAGCTTAATAGCTGATTAATAACTTTTAACGCAGCTTGTTGGCGAAGCGGAATGAGGTAACCCACAATCAGGGGAACCAGAATGATTAACAGCCCAGAAAACATGAAAACCCAGTCCTTGCAAAGATGAAGTCGAAATGCGCGATGACACACTACTGAAAGCGGAAGGACGAGTAAAGTTGCAATTAAAAGGAAATGTTATGCATAAGGAGCAGTAGAGTATTCGTTTTCATTTAAAGATATTCTTGCGCTTTAATTACAAACTGCACCGATGTTGGTGGCGTCAAAATCGCCGAGGCGTTCCCTGAAGGCCGGGGCAGCCCACATGGATGTGGGCTGAGGGCGCGTTTTACAGGG
B6: EcXA132: antisense clone insert to E. coli narV (nucleic acid, listed as Escherichia coli)
antisense: GGAGAGCGAAGGGCTATCCGGCCAGGGTGAAATTATCGCCGCGAACGCACAATTTGATATCGACGAGTAAAGTACTCAAACGGCGCGCTCCACACATGCACCAGTCGGGTGAACGGGAAGAGCAGGAAGATGGTCATTCCCAACACCAGATGCAGGCGGAAGACGAACGCTACGCCGTTGAGCATCTCTGACGATCCACCACGGAAAGTGA
B7: EcXA128: antisense clone insert to E. coli nagE (nucleic acid, listed as Escherichia coli)
antisense: CGCTGGAAAAAACCTAAAATATTCATCTTATTCCCCCTACGAGAACCCTATTTGGCTCGTTTCAAGCCGTATTTTTATTTTGCTGCAAATTGTACTGCCGATGTTCTGTAATCAGATTGTTAGATCATCTGCTACAGAGTGTGTGAAAATTTAATTCGTATCGCAAATTAAACGCGTGTCTTTTGTGAGTTTTGTCACCAAATATCGTTATTATCACTCCCTTTTACTGGCTAAACCAGAAAACTTATTT
B8: EcXA141: antisense clone insert to E. coli rfc (nucleic acid, listed as Escherichia coli)
antisense: CGATTATAGGGCTGACCAAATACATGGATAGATAATATGCCATCCCCCCAGGCAGTCCACGTAAAAAGAGCATATACAAGGAGAATAGAACACCTACAGCTGTAATAAGATAAACATAATGTTTTACTCTATTAACACCTACGATGAATGCATAAGAGATGATAACCATAAAGACAATTTGCTTACCAGTATTCAGTATAATTGCAAAGATGAATACAATAAAAACAAGTAAAGTAAATGTTTTACTTACCTTTGTATTAGTAAATTTTTTA
B9: EcXA125: antisense clone insert to E. coli yiiL (nucleic acid, listed as Escherichia coli)
antisense: TGTCGGTAAACAATGACAATTTGAGACAGAGTGAAAGGTCAGATTTGCGGAGTAATGCACATAATGGTTATTTAAATAAACCACATGAATCATTAATGGGTTATTCATTATTTTTGTGATTTACTCACAATGTATCAGGGAAATATAACTTACCGGGAGATGTAATATGTTTAATTTTTCAAATCGAAATTTAAAATATTGTGCCGGAGGCATCTCTGGCACATTGGGCAATTACGGCA
B10: EcXA137: antisense clone insert to E. coli proA, thrW (nucleic acid, listed as Escherichia coli)
antisense: CTTTTTACGGACAAACAATCATGCAACCAGAAGTTGAAGTATTAACCGATCATAATGAGCTAATTTGTTCGAGCTTTATTGAACACATTGCCAACACATTAAATTTAGGAGTGGTGTACAACTAAACCTGCAGCCAAGGATGTATAGTGAGCGAAGCCCTATCAGGCCTTTTTGGTCAGTAGATAAGATTGATCTTCGTTGATAGAATTTACTTACACCAGCTGTTACATTAAGATAATTTTTTGGTGGGAGAATGATAAGATCTTACGTAACAATTTGATTTTAATGGTGCCGATAATAGGAGTCGAACCTACGACCTTCGCATTACGAATGCGCTGCTCTACCAACTGAGCTATATCGGCCCTGAAAGGACATGTTCACGAACGTGAATCACGGTGGACAAGGTTAAAACTAACCGGGCGATGCGTCAATGGCCTTGTGAATCAAATGGCTACTTTTGCATCACCCGGTTTTATTTACGCACGAATGGTGTAATCACCAATGCCGATCCACTTGTAAGTGGTCAAGTGCTTNCAGCCCCATTGGGCCACGCGCCGTGGAGTTTTTGTGTGCTTACCGGCACTTTCGCACCCAGACCAAACTGGCCGCCGTCGGTAAAACGCGTAGAGGCGTTACGTAAACAGCGGACGAATCCACTTCGTNACAAAACGCTTGGCGTTGGCATATCGCGGGTCANGATCGCAATCGGAGTGTTGTGTGCCCGGGTTN
modifications: misc_feature (1)...(729): n = A,T,C or G
notes: antisense clone insert to E. coli proA, thrW
B11: EcXA126: antisense clone insert to E. coli yicC (nucleic acid, listed as Escherichia coli)
antisense: CGATGTTCTGAATCTGCTCGCGCATCTGCTCAATCAACACTTTCAGCTCGATGGCGGAGTTTGTCACTTCGGCATTGATAGACTTCGACGCAAGAGTGTTCGACTCGCGGTTGA
B12: EcXA123: antisense clone insert to E. coli yheL (nucleic acid, listed as Escherichia coli)
antisense: CTGGTTTTAGCTTTTGCTTCGTAAACACGTAATAAAACGTCCTCACACAATATGAGGACGCCGAATTTTAGGGCGATGCCGAAAAGGTGTCAAGAAATATACAACGATCCCGCCATCACCAGGCCATCTGGCTGGGG

What follows are molecules tested on Klebsiella pneumoniae (assay: Growth inhibition by induced E. coli antisense RNA in Klebsiella pneumoniae). Conditions: antisense RNA expression induced with IPTG, serial dilution plating.
Assay type: cell-based
Set-up: key: +: a positive in Table V below means that at least 10 fold more cells were required to observe a colony on the induced plate than on the non-induced plate; −: If there was no effect of antisense RNA expression in a microorganism, the clone is minus in Table V below
Description: To study the effects of transcriptional induction in liquid medium, growth curves were carried out by back diluting cultures 1:200 into fresh media with or without 1 mM IPTG and measuring the OD450 every 30 minutes (min). To study the effects of transcriptional induction on solid medium, 10^2, 10^3, 10^4, 10^5, 10^6, 10^7 and 10^8 fold dilutions of overnight cultures were prepared. Aliquots of from 0.5 to 3 μl of these dilutions were spotted on selective agar plates with or without 1 mM IPTG. After overnight incubation, the plates were compared to assess the sensitivity of the clones to IPTG.
Molecule No. EcXA190, encoding a portion of the b3052 gene of Escherichia coli, was either transformed directly into Enterobacter cloacae, Salmonella typhimurium and/or Klebsiella pneumoniae or subcloned into an expression vector functional in these species and the subclones transformed into these organisms. Suitable expression vectors are well known in the art. These expression vectors were introduced into Enterobacter cloacae, Salmonella typhimurium and/or Klebsiella pneumoniae cells that were then assayed for growth inhibition according to the method of Example 1. After growth in liquid culture, cells were plated at various serial dilutions and a score determined by calculating the log difference in growth for INDUCED vs. UNINDUCED antisense RNA expression as determined by the maximum 10 fold dilution at which a colony was observed. If there was no effect of antisense RNA expression in one organism, the clone is given a score of zero “0” in that organism. In contrast, a score of “8” means that 10^8 times more cells were required to observe a colony formed on the induced state than in the non-induced state under the conditions used and in that organism.
In addition, the above methods were validated using other antisense nucleic acids which inhibit the growth of E. coli which were identified using methods similar to those described above. Expression vectors which inhibited growth of E. coli upon induction of antisense RNA expression with IPTG were transformed directly into Enterobacter cloacae, Klebsiella pneumonia or Salmonella typhimurium. The transformed cells were then assayed for growth inhibition according to the method of Example 1. After growth in liquid culture, cells were plated at various serial dilutions and a score determined by calculating the log difference in growth for INDUCED vs. UNINDUCED antisense RNA expression as determined by the maximum 10 fold dilution at which a colony was observed. If there was no effect of antisense RNA expression in a microorganism, the clone is minus in Table V below. In contrast, a positive in Table V below means that at least 10 fold more cells were required to observe a colony on the induced plate than on the non-induced plate under the conditions used and in that microorganism.

Molecule | Sensitivity of K. pneumoniae to antisense nucleic acid (growth inhibition, induced vs. uninduced)
B1 | −
B2 | −
B3 | −
B4 | −
B5 | −
B6 | −
B7 | −
B8 | −
B9 | −
B10 | −
B11 | −
B12 | −
